Our source for the self-cleavage values is the RNAGym collection of RNA variant scans (doi:10.7554/elife.80360).

B1: Hairpin Ribozyme (parent)
chain: GUCCUCUUUCACGUGCGCGUGAAAGAGAGAAGUGAACCAGAGAAACACACGUUGUGGUAUAUUACCUGGUA

The variants in the series derive from B1. The experiment in a line: self-cleavage, relative activity (ratio to wild type); higher = more cleavage; co-transcriptional.
As to G13C A35U, the self-cleavage is 0.552.
In the case of G13C A35G, the self-cleavage is 0.801.
As to A11U A49U, the self-cleavage amounted to 0.251.
As for A11U A49C, the self-cleavage came to 0.24.
With C12U U67C, the self-cleavage came to 0.237.
For C12U G42C, the self-cleavage amounted to 0.265.
As to A11U U62A, the self-cleavage was found to be 0.148.
For A11G U14A, the self-cleavage was determined as 0.916.
Take G13C A61G: the self-cleavage amounted to 0.164.
As to C12G G54A, the self-cleavage stood at 0.543.
For the variant G13A C18A, the self-cleavage stood at 1.02.
With G13A U60A, the self-cleavage came out at 0.714.
With G13A U60G, the self-cleavage was 0.374.
With C12G C50A, the self-cleavage is 0.306.
For G13A A39G, the self-cleavage was determined as 0.279.
For the variant C12G C65U, the self-cleavage is 0.28.
With C12G C65G, the self-cleavage was determined as 0.174.
In the case of C12U U53C, the self-cleavage was 0.862.
In the case of A11U G69A, the self-cleavage was 0.402.
For G13A A49U, the self-cleavage was 0.18.
G13A A49G: the self-cleavage turned out to be 0.5.
As for C12U G29A, the figure is 0.164; as for C12A A41G, 0.736; as for A11G G56C, 0.128.
On to A11G G56A, for which the self-cleavage worked out at 0.229.
For A11U A61U, the self-cleavage stood at 0.247.
On to A11U A47U, for which the self-cleavage came to 0.266.
As to A11U G51C, the self-cleavage is 0.706.
As for C12A C18A, the figure is 0.812; as for A11U A39G, 0.342; as for G13A A61U, 0.136.
As for A11U A28U, the figure is 0.494.
On to C12U G15A, for which the self-cleavage turned out to be 0.687.
In the case of C12U G15U, the self-cleavage came to 1.08.
C12U U62C: the self-cleavage worked out at 0.27.
On to G13A A22C, for which the self-cleavage was 0.607.
As for G13A A22G, the self-cleavage is 0.676.
In the case of A11U G15C, the self-cleavage turned out to be 0.85.
A11U G15A: the self-cleavage turned out to be 0.849.
As for A11U G27A, the figure is 0.406.
As for G13A G27C, the self-cleavage came out at 0.217.
As for G13A G27A, the self-cleavage amounted to 0.462.
G13C A24U: the self-cleavage came out at 0.735.
Turning to G13A G34C, the self-cleavage came out at 1.33.
As to C12U C46U, the self-cleavage amounted to 0.174.
With G13A C48A, the self-cleavage came to 0.144.
In the case of G13A C48U, the self-cleavage turned out to be 0.22.
As for G13A C48G, the figure is 0.118; as for A11U A31U, 0.0898; as for C12A A45C, 0.137.
As for A11U C46A, the figure is 0.16.
As for A11U C46G, the figure is 0.0538; as for C12G A23G, 0.853.
As to C12G A23U, the self-cleavage turned out to be 0.753.
Regarding C12G A23C, the self-cleavage is 0.511.
For the variant G13A U62G, the self-cleavage is 0.106.
In the case of C12G G27A, the self-cleavage was 0.29.
As to C12G G27U, the self-cleavage stood at 0.261.
Regarding G13C C16G, the self-cleavage was determined as 0.407.
As to G13A U63C, the self-cleavage came out at 0.175.
As for G13A U63G, the figure is 0.0786; as for A11G U33A, 0.0249.
As for A11U G13C, the figure is 0.737.
Turning to A11U G13U, the self-cleavage worked out at 0.54.
For the variant A11U G56C, the self-cleavage came out at 0.087.
Consider A11U A44C, for which the self-cleavage worked out at 0.216.
On to C12A C66U, for which the self-cleavage was determined as 0.418.
Regarding A11U A22U, the self-cleavage worked out at 0.501.
As for A11U A22C, the figure is 0.363.
Consider G13C A26U, for which the self-cleavage turned out to be 0.406.
In the case of A11U C50G, the self-cleavage turned out to be 0.258.
As for A11U C66G, the self-cleavage came out at 0.0569.
For the variant G13A C46U, the self-cleavage was 0.221.
Regarding G13A G40U, the self-cleavage came to 0.129.
For the variant G13A C66U, the self-cleavage was 0.419.
As to G13A C66A, the self-cleavage amounted to 0.173.
For A11U U60G, the self-cleavage stood at 0.509.
As for A11U U60A, the self-cleavage is 0.708.
For the variant C12G G19A, the self-cleavage was 0.808.
Consider C12G G19C, for which the self-cleavage is 1.24.
As for C12G G19U, the self-cleavage came out at 0.997.
As for G13A A47U, the figure is 0.172; as for C12U A49C, 0.169.
As to C12U A49U, the self-cleavage turned out to be 0.159.
As for C12U G27C, the figure is 0.15.
As for G13C A28C, the figure is 0.343; as for A11U A41C, 1.01; as for A11U A41U, 1.
For A11U A59U, the self-cleavage was 0.256.
With A11U A59C, the self-cleavage worked out at 0.137.
Take C12A U62C: the self-cleavage was 0.0739.
As for A11U A30G, the figure is 0.0913; as for C12U C48U, 0.126; as for A11U G25C, 0.205.
With C12G A59U, the self-cleavage worked out at 0.134.
As for G13C A47G, the figure is 0.21.
For G13C A47U, the self-cleavage turned out to be 0.109.
As to G13C A47C, the self-cleavage was 0.205.
C12A G69A: the self-cleavage came out at 0.289.
G13C C38U: the self-cleavage stood at 0.384.
As to G13C C38G, the self-cleavage worked out at 0.179.
As for G13C C38A, the figure is 0.2; as for C12A U33G, 0.175.
Regarding C12U C38G, the self-cleavage came out at 0.235.
As for C12G G56U, the figure is 0.124; as for C12G G56A, 0.14.
As for C12G A22C, the figure is 0.518; as for G13C A31G, 0.515.
As for G13C A31C, the figure is 0.227.
On to G13C A30U, for which the self-cleavage is 0.14.
In the case of C12A A24U, the self-cleavage was 0.584.
As for C12G A49U, the self-cleavage amounted to 0.12.
C12A A22G: the self-cleavage amounted to 0.692.
As for A11U U33A, the self-cleavage came out at 0.0768.
On to C12A C16U, for which the self-cleavage turned out to be 0.977.
With C12A C16G, the self-cleavage came out at 0.671.
In the case of C12A C37A, the self-cleavage was 0.27.
As for C12A C37G, the self-cleavage amounted to 0.259.
As for C12U A43G, the figure is 0.0708; as for C12U A43U, 0.22; as for C12A U52G, 0.757.
Take C12U G13C: the self-cleavage turned out to be 0.791.
Regarding C12U G13U, the self-cleavage turned out to be 0.828.
As to A11G G40U, the self-cleavage stood at 0.149.
As for C12G A44G, the figure is 0.156; as for C12G A44U, 0.147.
Turning to A11U G54C, the self-cleavage came out at 0.333.
As to C12U C16U, the self-cleavage was determined as 0.916.
As for A11U U58A, the figure is 0.523; as for A11U U58G, 0.65.
G13A U70C: the self-cleavage is 0.615.
As for A11U G32A, the figure is 0.165; as for C12A A64U, 0.176.
As for C12G G68C, the self-cleavage amounted to 0.144.
As for C12G G68A, the self-cleavage amounted to 0.233.
As for C12G U20C, the figure is 1.01; as for C12G G15A, 0.881.
In the case of C12U A30C, the self-cleavage came to 0.193.
On to C12U A30U, for which the self-cleavage was 0.136.
As for G13A G32C, the figure is 0.136.
With G13A G32A, the self-cleavage was determined as 0.0965.
As for A11G G54C, the figure is 0.297; as for A11G G51A, 0.93; as for A11G G51U, 0.713.
For G13A A71G, the self-cleavage was 0.912.
Consider G13A A71C, for which the self-cleavage turned out to be 1.36.
For C12A U55C, the self-cleavage amounted to 0.208.
Take C12A A35U: the self-cleavage was determined as 0.635.
As for C12G U60C, the figure is 1.04.
For the variant C12G A30U, the self-cleavage amounted to 0.147.
C12G A30G: the self-cleavage was 0.247.
Consider C12G A30C, for which the self-cleavage came out at 0.0578.
Turning to A11U A45U, the self-cleavage came out at 0.255.
Take C12A A36C: the self-cleavage was determined as 0.523.
As for C12G G34C, the figure is 1.15.
As for A11U U14G, the figure is 0.536; as for A11U U14C, 0.964.
As for G13A A35G, the figure is 0.732.
In the case of G13A A35U, the self-cleavage was found to be 0.78.
Regarding G13A G15C, the self-cleavage worked out at 0.753.
As for G13A G15U, the figure is 1.1; as for G13A A44G, 0.125.
On to G13C A64G, for which the self-cleavage worked out at 0.448.
As for G13C A64U, the figure is 0.128.
Regarding G13C A59G, the self-cleavage was found to be 0.13.
With C12U A36U, the self-cleavage was 0.584.
Regarding C12U A36G, the self-cleavage was found to be 1.17.
